Bridge positions count the residues as written; N and C are the ends. Square brackets hold non-standard residues; d marks the D form. Ends that are not written are not given here. * marks the point of attachment. FITC = O=C1OC2(c3ccc(O)cc3Oc3cc(O)ccc32)c2ccc(NC(=S)*)cc21; S5 = C=CCCC[C@](C)(N)C(=O)O; PEG = not defined here; βAla = NCCC(=O)O
T1: GST-RAB25 (1-180) (UniProt P57735 1-180)
T1 construct: RAB25, residues 1-180, in pET41 Ek/LIC; source: E. coli BL21, purified (glutathione sepharose, Superdex 75 gel filtration)
T1 sequence (looked up): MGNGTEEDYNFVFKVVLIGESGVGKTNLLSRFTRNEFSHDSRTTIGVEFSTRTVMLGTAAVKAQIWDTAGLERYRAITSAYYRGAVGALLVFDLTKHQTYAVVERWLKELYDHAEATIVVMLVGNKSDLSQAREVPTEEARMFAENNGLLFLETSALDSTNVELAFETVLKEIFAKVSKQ

T2: GST-RAB11a (1-173, Q70L mutant) (UniProt P62491 1-173, Q70L)
T2 construct: source: E. coli BL21, purified (glutathione sepharose, Superdex 75 gel filtration)
T2 sequence (looked up): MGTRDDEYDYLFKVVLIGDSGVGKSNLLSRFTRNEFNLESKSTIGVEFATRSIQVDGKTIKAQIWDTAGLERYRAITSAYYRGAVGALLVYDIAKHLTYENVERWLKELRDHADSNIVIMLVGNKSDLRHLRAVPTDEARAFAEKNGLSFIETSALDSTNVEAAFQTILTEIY


Tests used:
GST-RAB25 (1-180) = biological target: T1, GST-RAB25 (1-180); experiment: fluorescence polarisation; FITC-peptide 25 nM with threefold dilutions of GST-RAB protein; 20 mM Tris pH 8.0, 150 mM NaCl, 5 mM MgCl2, 2 mM DTT, 10 µM GTP, 2% glycerol; room temperature, 30 min; apparent Kd from a sigmoidal (4-parameter) fit, 95% confidence interval; conditions: both partners purified
[1] = biological target: T2, GST-RAB11a (1-173, Q70L mutant); experiment: as above; conditions: both partners purified

| Kd (GST-RAB25 (1-180)) [nM] | Kd [1] [nM] | Binder |
| --- | --- | --- |
| > 5000 | > 5000 | {FITC-PEG}-ERDTHIRELEDYIDNLLVRVMEETPSILRVPR (reading uncertain, limits worked out from the printed L485, V486 and M489; also called fRFP2; FIP2 peptide; source: synthetic peptide (Fmoc solid phase, HPLC purified)) [FITC-RFP2 (unmodified FIP2 RAB-binding domain peptide)] |
| > 5000 | > 5000 | {FITC-PEG}-KKEFQVRELEDYIDNLLVRVMEETPNILRIPA (reading uncertain, also called fRFP1; FIP1 peptide; source: synthetic peptide (Fmoc solid phase, HPLC purified)) [FITC-RFP1 (unmodified FIP1 RAB-binding domain peptide)] |
| 50 | 7 | {FITC-PEG-βAla}-RINFRLQDYID[S5]IIV[S5]IMETNPSILEVK (staple 12-16; reading uncertain) [FITC-RFP11 (FIP3-derived stapled peptide, 'IIV' staple)] |
| > 5000 | > 5000 | {FITC-PEG-βAla}-RINFRLQ[S5]YID[S5]IIVAIMETNPSILEVK (staple 8-12; reading uncertain) [FITC-RFP10 (FIP3-derived stapled peptide, 'YID' staple)] |
| 40 | 80 | {FITC-PEG-βAla}-RINFRLQD[S5]IDR[S5]IVAIMETNPSILEVK (staple 9-13; reading uncertain) [FITC-RFP13 (FIP3-derived stapled peptide, 'IDR' staple)] |
| 30 | 20 | {FITC-PEG-βAla}-RINFRLQDYIDRIIV[S5]IME[S5]NPSILEVK (staple 16-20; reading uncertain) [FITC-RFP12 (FIP3-derived stapled peptide, 'IME' staple)] |
| > 5000 | > 5000 | {FITC-PEG-βAla}-RQVRELE[S5]YID[S5]LLVRVMEETPNILRIPR (staple 8-12; reading uncertain) [FITC-RFP6 (FIP1-derived stapled peptide, 'YID' staple)] |
| 1200 | 2400 | {FITC-PEG-βAla}-RQVRELED[S5]IDR[S5]LVRVMEETPNILRIPR (staple 9-13; reading uncertain) [FITC-RFP9 (FIP1-derived stapled peptide, 'IDR' staple)] |
| 510 | 110 | {FITC-PEG-βAla}-RQVRELEDYID[S5]LLV[S5]VMEETPNILRIPR (staple 12-16; reading uncertain) [FITC-RFP7 (FIP1-derived stapled peptide, 'IIV' staple)] |
| 2300 | 930 | {FITC-PEG}-EQEEINFRLRQYMDKIILAILDHNPSILEIKH (reading uncertain, also called fRFP4; FIP4 peptide; source: synthetic peptide (Fmoc solid phase, HPLC purified)) [FITC-RFP4 (unmodified FIP4 RAB-binding domain peptide)] |
| 170 | 40 | {FITC-PEG-βAla}-RQVRELEDYIDRLLV[S5]VME[S5]TPNILRIPR (staple 16-20; reading uncertain) [FITC-RFP8 (FIP1-derived stapled peptide, 'IME' staple)] |
